{
  "source": "patent US9988424",
  "about": "(DUKE UNIVERSITY, dated 2018)",
  "key": {"AE.A244 V1V2 Tags": {"biological_target": "AE.A244 V1V2 Tags (HIV-1)", "test": "ELISA"}, "D.9009SA V1V2 Tags": {"biological_target": "T1, D.9009SA V1V2 Tags", "T1 Env construct": "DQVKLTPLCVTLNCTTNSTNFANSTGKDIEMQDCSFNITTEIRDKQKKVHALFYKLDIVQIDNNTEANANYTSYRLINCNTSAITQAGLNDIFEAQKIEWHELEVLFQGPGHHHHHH", "test": "ELISA, OD405"}, "gp70 B.CaseA2 V1/V2": {"biological_target": "T2, gp70 B.CaseA2 V1/V2 (HIV-1 V1V2 on murine leukemia virus gp70)", "T2 construct": "also called B.gp70CaseA2 V1/V2; gp70 B.CaseAV1V2", "T2 chain": "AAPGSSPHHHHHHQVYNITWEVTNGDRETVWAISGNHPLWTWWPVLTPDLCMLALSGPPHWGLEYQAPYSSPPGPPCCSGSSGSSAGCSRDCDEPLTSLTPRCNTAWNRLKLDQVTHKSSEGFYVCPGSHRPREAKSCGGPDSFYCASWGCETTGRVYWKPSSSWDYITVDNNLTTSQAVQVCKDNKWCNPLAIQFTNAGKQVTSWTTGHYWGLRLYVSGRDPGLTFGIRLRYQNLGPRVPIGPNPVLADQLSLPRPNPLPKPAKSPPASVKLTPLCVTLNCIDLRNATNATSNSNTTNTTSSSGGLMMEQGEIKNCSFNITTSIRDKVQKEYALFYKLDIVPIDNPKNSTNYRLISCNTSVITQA", "test": "SPR (BIAcore), mAb captured on anti-Fc surface, V1V2 protein injected as analyte, Synagis surface subtracted, global 1:1 Langmuir fit"}, "B.con gp140CF [1]": {"biological_target": "B.con gp140CF", "test": "ELISA, OD405 at 10 ug/ml"}, "B.040 gp140C [2]": {"biological_target": "B.040 gp140C", "test": "ELISA, OD405 at 10 ug/ml"}, "G.con gp140CF [3]": {"biological_target": "G.con gp140CF", "test": "ELISA, OD405 at 10 ug/ml"}, "Con 6 gp120 [4]": {"biological_target": "Con 6 gp120", "test": "ELISA, OD405 at 10 ug/ml"}, "C.1086 gp140 [5]": {"biological_target": "T3, C.1086 gp140", "T3 construct": "also called C.1086gp140C", "test": "ELISA, OD405 at 10 ug/ml"}, "AE.con gp140CF [6]": {"biological_target": "AE.con gp140CF", "test": "ELISA, OD405 at 10 ug/ml"}, "B.62357 gp140C [7]": {"biological_target": "T4, B.62357 gp140C", "T4 construct": "also called B.62357 140C", "test": "ELISA, OD405 at 10 ug/ml"}, "AE.A244 gp120 delta 11": {"biological_target": "T5, AE.A244 gp120 delta 11 (HIV-1)", "T5 construct": "also called E.A244gp120Δ11; AE.A244 Δ11 gp120", "test": "SPR, mAb captured on anti-Fc, monomeric gp120 injected"}, "D.9009SA V1/V2 tags [8]": {"biological_target": "D.9009SA V1/V2 tags", "test": "ELISA, OD405 at 10 ug/ml"}, "A.9004SS V1/V2 tags [9]": {"biological_target": "T6, A.9004SS V1/V2 tags", "T6 V1V2 tags construct": "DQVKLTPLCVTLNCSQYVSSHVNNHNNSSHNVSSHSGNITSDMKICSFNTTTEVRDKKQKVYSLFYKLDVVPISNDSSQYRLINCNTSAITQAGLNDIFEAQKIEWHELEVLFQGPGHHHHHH", "test": "ELISA, OD405 at 10 ug/ml"}, "B.63521_V1/V2 tags [10]": {"biological_target": "B.63521_V1/V2 tags", "test": "ELISA, OD405 at 10 ug/ml"}, "B.040 gp140C [11]": {"biological_target": "B.040 gp140C", "test": "ELISA, OD405 at 10 ug/ml", "remark": "listed apart in the source"}, "G.con gp140CF [12]": {"biological_target": "G.con gp140CF", "test": "ELISA, OD405 at 10 ug/ml", "remark": "listed apart in the source"}, "C.1086 gp140 [13]": {"biological_target": "T3, C.1086 gp140", "test": "ELISA, OD405 at 10 ug/ml", "remark": "listed apart in the source"}, "AE.con gp140CF [14]": {"biological_target": "AE.con gp140CF", "test": "ELISA, OD405 at 10 ug/ml", "remark": "listed apart in the source"}, "D.9009SA V1/V2 tags [15]": {"biological_target": "D.9009SA V1/V2 tags", "test": "ELISA, OD405 at 10 ug/ml", "remark": "listed apart in the source"}, "B.con gp140CF [16]": {"biological_target": "B.con gp140CF", "test": "ELISA, OD405 at 10 ug/ml", "remark": "listed apart in the source"}, "A.9004SS V1/V2 tags [17]": {"biological_target": "T6, A.9004SS V1/V2 tags", "test": "ELISA, OD405 at 10 ug/ml"}, "B.63521_V1/V2 tags [18]": {"biological_target": "B.63521_V1/V2 tags", "test": "ELISA, OD405 at 10 ug/ml", "remark": "listed apart in the source"}, "B.040 gp140C [19]": {"biological_target": "B.040 gp140C", "test": "ELISA, OD405 at 10 ug/ml", "remark": "listed apart in the source"}, "G.con gp140CF [20]": {"biological_target": "G.con gp140CF", "test": "ELISA, OD405 at 10 ug/ml", "remark": "listed apart in the source"}, "Con 6 gp120 [21]": {"biological_target": "Con 6 gp120", "test": "ELISA, OD405 at 10 ug/ml", "remark": "listed apart in the source"}, "C.1086 gp140 [22]": {"biological_target": "T3, C.1086 gp140", "test": "ELISA, OD405 at 10 ug/ml", "remark": "listed apart in the source"}, "AE.con gp140CF [23]": {"biological_target": "AE.con gp140CF", "test": "ELISA, OD405 at 10 ug/ml", "remark": "listed apart in the source"}, "B.62357 gp140C [24]": {"biological_target": "T4, B.62357 gp140C", "test": "ELISA, OD405 at 10 ug/ml", "remark": "listed apart in the source"}, "B.Case A2 V1/V2 tags": {"biological_target": "B.Case A2 V1/V2 tags", "test": "ELISA, OD405 at 10 ug/ml"}},
  "note": "Where two headings read alike, the source gives them in different places.",
  "data": [
    {"binder": "697D (antibody, V domains shown, also called mAb 697D; V2 conformational mAb 697D) VH: QVQLVQSGAEVKKPGSSVKVSCKASGGNFNTYTISWVRQAPGQGLEWMGRIIPIFGIVNPAQKFPGRVTINVDKSTNTAYMELSSLRSEDTAVYYCATSGVGLHFGYFDYWGQGTQVTVSS VL: QSVLTQPPSVSGAPGQRVTISCTGSSSNIGAHYDVHWYQQLPGTAPKLLIYGNSNRPSGVPDRFSGSKSGTSASLAITGLQAEDEADYYCQSYDSSLSGYVFGTGTKVTVL", "values": [
      {"measurement": "EC50 (read off the curve)", "setting": "AE.A244 V1V2 Tags", "value": "~0.1", "unit": "µg/mL"},
      {"measurement": "binding result", "setting": "D.9009SA V1V2 Tags", "value": "no binding (tested: 10 ug/ml)"},
      {"measurement": "Kd", "setting": "gp70 B.CaseA2 V1/V2", "value": 36.5, "unit": "nM"},
      {"measurement": "koff", "setting": "gp70 B.CaseA2 V1/V2", "value": 0.00038, "unit": "s⁻¹"},
      {"measurement": "kon", "setting": "gp70 B.CaseA2 V1/V2", "value": 10000, "unit": "M⁻¹ s⁻¹"}
    ]},
    {"binder": "CH58 reverted unmutated ancestor antibody (antibody, V domains shown, also called CH58 RUA; CH58_RUA) VH: EVQLVQSGAEVKKPGESLKISCKGSGYSFTSYWIGWVRQMPGKGLEWMGIIYPGDSDTRYSPSFQGQVTISADKSISTAYLQWSSLKASDTAMYYCARLGGRYYYDSSGYYYFDYWGQGTLVTVSS VL: NFMLTQPHSVSESPGKTVTISCTRSSGSIASNYVQWYQQRPGSSPTTVIYEDNQRPSGVPDRFSGSIDSSSNSASLTISGLKTEDEADYYCQSYDSSSWVFGGGTKLTVL", "values": [
      {"measurement": "binding result", "setting": "B.con gp140CF [1]", "value": "no binding (tested: 10 ug/ml)"},
      {"measurement": "binding result", "setting": "B.040 gp140C [2]", "value": "no binding (tested: 10 ug/ml)"},
      {"measurement": "binding result", "setting": "G.con gp140CF [3]", "value": "no binding (tested: 10 ug/ml)"},
      {"measurement": "binding result", "setting": "Con 6 gp120 [4]", "value": "no binding (tested: 10 ug/ml)"},
      {"measurement": "binding result", "setting": "C.1086 gp140 [5]", "value": "no binding (tested: 10 ug/ml)"},
      {"measurement": "binding result", "setting": "AE.con gp140CF [6]", "value": "no binding (tested: 10 ug/ml)"},
      {"measurement": "binding result", "setting": "B.62357 gp140C [7]", "value": "no binding (tested: 10 ug/ml)"}
    ]},
    {"binder": "CH59 (antibody, V domains shown, also called mAb CH59) VH: EVQLVESGGGLVQPGRSLRLSCAASGFTFDDGAMHWVRQAPGKGLEWVSGISWNSNIIAYADSVKGRFTISRDNAKNSLYLEMNSLRVEDTALYYCAKDSPRGELPLNYWGQGTLVTVSS VL: SYELTQPPSVSVSPGQTARITCSGDALPKNYAYWYQQKSGQAPVLVIYEDSKRPSGIPERFSGSSSGTMATLTISGAQVEDEADYYCYSTDSSGNHRVFGGGTKLTVL", "values": [
      {"measurement": "Kd", "setting": "AE.A244 gp120 delta 11", "value": 2.2, "unit": "nM"},
      {"measurement": "binding result", "setting": "D.9009SA V1/V2 tags [8]", "value": "binds"},
      {"measurement": "binding result", "setting": "A.9004SS V1/V2 tags [9]", "value": "binds"},
      {"measurement": "binding result", "setting": "B.63521_V1/V2 tags [10]", "value": "no binding (tested: 10 ug/ml)"},
      {"measurement": "binding result", "setting": "B.040 gp140C [11]", "value": "no binding (tested: 10 ug/ml)"},
      {"measurement": "binding result", "setting": "G.con gp140CF [12]", "value": "no binding (tested: 10 ug/ml)"},
      {"measurement": "binding result", "setting": "C.1086 gp140 [13]", "value": "binds"},
      {"measurement": "binding result", "setting": "AE.con gp140CF [14]", "value": "binds"}
    ]},
    {"binder": "CH59 reverted unmutated ancestor antibody (antibody, V domains shown, also called CH59 RUA; CH59_RUA) VH: EVQLVESGGGLVQPGRSLRLSCAASGFTFDDYAMHWVRQAPGKGLEWVSGISWNSGSIGYADSVKGRFTISRDNAKNSLYLQMNSLRAEDTALYYCAKDSPRGELPFDYWGQGTLVTVSS VL: SYELTQPPSVSVSPGQTARITCSGDALPKKYAYWYQQKSGQAPVLVIYEDSKRPSGIPERFSGSSSGTMATLTISGAQVEDEADYYCYSTDSSGNHRVFGGGTKLTVL", "values": [
      {"measurement": "binding result", "setting": "D.9009SA V1/V2 tags [15]", "value": "no binding (tested: 10 ug/ml)"},
      {"measurement": "binding result", "setting": "B.con gp140CF [16]", "value": "no binding (tested: 10 ug/ml)"},
      {"measurement": "binding result", "setting": "A.9004SS V1/V2 tags [17]", "value": "no binding (tested: 10 ug/ml)"},
      {"measurement": "binding result", "setting": "B.63521_V1/V2 tags [18]", "value": "no binding (tested: 10 ug/ml)"},
      {"measurement": "binding result", "setting": "B.040 gp140C [19]", "value": "no binding (tested: 10 ug/ml)"},
      {"measurement": "binding result", "setting": "G.con gp140CF [20]", "value": "no binding (tested: 10 ug/ml)"},
      {"measurement": "binding result", "setting": "Con 6 gp120 [21]", "value": "no binding (tested: 10 ug/ml)"},
      {"measurement": "binding result", "setting": "C.1086 gp140 [22]", "value": "no binding (tested: 10 ug/ml)"},
      {"measurement": "binding result", "setting": "AE.con gp140CF [23]", "value": "no binding (tested: 10 ug/ml)"},
      {"measurement": "binding result", "setting": "B.62357 gp140C [24]", "value": "no binding (tested: 10 ug/ml)"},
      {"measurement": "binding result", "setting": "B.Case A2 V1/V2 tags", "value": "no binding (tested: 10 ug/ml)"}
    ]}
  ]
}
